Assay results: paper PMC11893775
Non-standard residues stand in square brackets, D forms with d. No end group written: not given here.

How the values were obtained:
[1] = biological target: recombinant human furin lacking the trans-membrane domain and cytosolic tail (human) (UniProt P09958)
[2] = biological target: T1, recombinant kallikrein-8 (rKLK8) (UniProt O60259)
T1 sequence: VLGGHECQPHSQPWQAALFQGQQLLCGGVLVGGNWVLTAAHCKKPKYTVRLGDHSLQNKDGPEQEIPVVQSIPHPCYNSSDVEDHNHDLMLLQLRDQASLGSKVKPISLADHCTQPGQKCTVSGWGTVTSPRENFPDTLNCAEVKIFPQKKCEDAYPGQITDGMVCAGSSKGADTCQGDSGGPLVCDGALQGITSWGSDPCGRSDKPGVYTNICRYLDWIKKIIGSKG

UniProt P09958, sequence (P09958 108-715): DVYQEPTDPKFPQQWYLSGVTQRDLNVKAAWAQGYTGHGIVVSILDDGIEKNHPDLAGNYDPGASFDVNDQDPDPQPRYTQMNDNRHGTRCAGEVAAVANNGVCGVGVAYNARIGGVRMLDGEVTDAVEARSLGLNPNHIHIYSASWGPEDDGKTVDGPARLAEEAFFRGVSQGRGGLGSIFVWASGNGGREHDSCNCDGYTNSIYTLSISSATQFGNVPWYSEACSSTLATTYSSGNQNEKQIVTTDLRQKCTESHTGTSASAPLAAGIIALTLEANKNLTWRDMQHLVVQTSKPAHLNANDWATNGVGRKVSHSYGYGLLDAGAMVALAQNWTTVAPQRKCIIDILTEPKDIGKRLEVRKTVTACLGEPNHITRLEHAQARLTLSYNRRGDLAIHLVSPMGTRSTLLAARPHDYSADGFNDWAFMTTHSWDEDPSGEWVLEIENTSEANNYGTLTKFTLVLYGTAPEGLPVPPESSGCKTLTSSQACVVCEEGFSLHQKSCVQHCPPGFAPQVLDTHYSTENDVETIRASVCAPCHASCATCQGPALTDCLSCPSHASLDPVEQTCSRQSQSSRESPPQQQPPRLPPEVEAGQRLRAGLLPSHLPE

- IC50 of D6R for inhibition of the in vitro cleavage of the fluorogenic substrate Boc-RVRR-AMC by rFurin [1]: 780 nM
- IC50 of D6R for inhibition of the in vitro cleavage of the fluorogenic substrate Boc-VPR-AMC by rKLK8 [2]: < 25000 nM
Binder: [dR][dR][dR][dR][dR][dR] [hexa-D-arginine]
